Values quoted from earlier work in patent US20180221339A1, “COMPOSITIONS AND METHODS FOR TREATING AND DIAGNOSING OCULAR DISORDERS” (TRANSLATUM MEDICUS, INC., priority 2015, published 2018).

Molecular target: T1, complement factor D (CFD) (Homo sapiens, UniProt P00746)
T1 construct: host or cells: patients (endogenous protein, in vivo)
Conditions: phase II study, 18 month period; most robust in patients with complement factor H and I polymorphisms

T1 sequence (P00746 26-253): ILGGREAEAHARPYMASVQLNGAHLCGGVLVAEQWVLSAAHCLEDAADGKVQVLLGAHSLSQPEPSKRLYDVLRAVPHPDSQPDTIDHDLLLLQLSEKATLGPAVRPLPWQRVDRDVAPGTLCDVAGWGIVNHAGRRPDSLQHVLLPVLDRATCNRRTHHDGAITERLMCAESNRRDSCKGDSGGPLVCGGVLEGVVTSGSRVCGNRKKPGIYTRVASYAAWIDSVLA

Lampilizumab: complement factor D (CFD) inhibitor; anti-factor D antibody (Genentech)
growth (expansion) of geographic atrophy: can slow the growth, i.e. expansion, of geographic atrophy
